B1: GFP-FIP200 CTR aa 1458-1594 [human] / GST-p62 FIR 4P [human] (parent)
chain 1: RIMLLERTLQLKEEENKRLNQRLMSQSMSSVSSRHSEKIAIRDFQVGDLVLIILDERHDNYVLFTVSPTLYFLHSESLPALDLKPGEGASGASRRPWVLGKVMEKEYCQAKKAQNRFKVPLGTKFYRVKAVSWNKKV
chain 2: MESDNCSGGDDDWTHLSSKEVDPDTGELQSLQMPESEGPDDLDPDQEGPTGLKEA

The variants in this test derive from B1. Description: GSH bead recruitment assay imaged by microscopy. The conditions noted are these: with GST-p62 FIR 4P [human];; read off a plot.
As to chain 1 R116D, the percent of parent is 21%.

Consider chain 1 S75A, for which the percent of parent stood at 83%.

chain 1 N60A: the percent of parent worked out at 95%.

Regarding chain 1 N60F, the percent of parent is 56%.

Consider chain 1 F117W, for which the percent of parent is 80%.

For the variant chain 1 F117A, the percent of parent came to 19%.

For the variant chain 1 R127A, the percent of parent came to 21%.

As to chain 1 L78F, the percent of parent stood at 92%.

As to chain 1 L78A, the percent of parent came to 100%.

Values taken from article PMC6477179.
